According to patent publication US11969464B2, “Amidated peptides and their deamidated counterparts displayed by HLA-A*02 for use in immunotherapy against different types of cancers” (Immatics Biotechnologies GmbH, priority 2020, dated 2024):

Columns and labels:
HLA-A*02:01 = HLA-A*02:01 (Homo sapiens, UniProt P04439, D140Y/D185E/D98H/E176V/E277Q/G131W/G231S/I119V/I121R/I166T/I218V/L300P/L318F/N151K/N90K/P208A/P217A/Q86G/Q94H/R138H/R169H/T345S); assay: MHC binding assay (UV-ligand exchange, anti-β2m ELISA); details: peptide exchange yield, binding to HLA-A*02:01
Text: Candidate peptides for T cell based therapies according to the present invention were further tested for their MHC binding capacity (affinity). The individual peptide-MHC complexes were produced by UV-ligand exchange, where a UV-sensitive peptide is cleaved upon UV-irradiation and exchanged with the peptide of interest as analyzed. Only peptide candidates that can effectively bind and stabilize the peptide-receptive MHC molecules prevent dissociation of the MHC complexes. To determine the yield of the exchange reaction, an ELISA was performed based on the detection of the light chain (β2m) of stabilized MHC complexes. The assay was performed as generally described in Rodenko et al. (Rodenko et al., 2006).
96 well MAXISorp plates (NUNC) were coated over night with 2 μg/ml streptavidin in PBS at room temperature, washed 4× and blocked for 1 h at 37° C. in 2% BSA containing blocking buffer. Refolded HLA-A*02:01/MLA-001 monomers served as standards, covering the range of 15-500 ng/ml. Peptide-MHC monomers of the UV-exchange reaction were diluted 100-fold in blocking buffer. Samples were incubated for 1 h at 37° C., washed four times, incubated with 2 μg/ml HRP conjugated anti-β2m for 1 h at 37° C., washed again and detected with TMB solution that is stopped with […]. Absorption was measured at 450 nm. Candidate peptides that show a high exchange yield (preferably higher than 50%, most preferred higher than 75%) are generally preferred for a generation and production of antibodies or fragments thereof, and/or T cell receptors or fragments thereof, as they show sufficient avidity to the MHC molecules and prevent dissociation of the MHC complexes.

CD8+ T cells = assay: In vitro T cell priming assay with aAPCs loaded with peptide/MHC complexes and anti-CD28, pMHC multimer readout; assay type: cell-based, human; details: percentage of positive wells and donors (among evaluable), healthy HLA-A*02+ donors
Text: In order to obtain information regarding the immunogenicity of the TUMAPs of the present invention, the inventors performed investigations using an in vitro T cell priming assay based on repeated stimulations of CD8+ T cells with artificial antigen presenting cells (aAPCs) loaded with peptide/MHC complexes and anti-CD28 antibody.
In order to perform in vitro stimulations by artificial antigen presenting cells loaded with peptide-MHC complex (pMHC) and anti-CD28 antibody, the inventors first isolated CD8+ T cells from fresh HLA-A*02 leukapheresis products via positive selection using CD8 microbeads (Miltenyi Biotec, Bergisch-Gladbach, Germany) of healthy donors obtained from the University clinics Mannheim, Germany, after informed consent.
PBMCs and isolated CD8+ lymphocytes were incubated in T cell medium (TCM) until use consisting of RPMI-Glutamax (Invitrogen, Karlsruhe, Germany) supplemented with 10% heat inactivated human AB serum (PAN-Biotech, Aidenbach, Germany), 100 U/ml Penicillin/100 μg/ml Streptomycin (Cambrex, Cologne, Germany), 1 mM sodium pyruvate (CC Pro, Oberdorla, Germany), 20 μg/ml Gentamycin (Cambrex). 2.5 ng/ml IL-7 (PromoCell, Heidelberg, Germany) and 10 U/ml IL-2 (Novartis Pharma, Nurnberg, Germany) were also added to the TCM at this step.
Generation of pMHC/anti-CD28 coated beads, T cell stimulations and readout was performed in a highly defined in vitro system using four different pMHC molecules per stimulation condition and 8 different pMHC molecules per readout condition.
The purified co-stimulatory mouse IgG2a anti human CD28 Ab 9.3 (Jung et al., 1987) was chemically biotinylated using Sulfo-N-hydroxysuccinimidobiotin as recommended by the manufacturer (Perbio, Bonn, Germany). Beads used were 5.6 μm diameter streptavidin coated polystyrene particles (Bangs Laboratories, Illinois, USA).
800.000 beads/200 μl were coated in 96-well plates in the presence of 4×12.5 ng different biotin-pMHC, washed and 600 ng biotin anti-CD28 were added subsequently in a volume of 200 μl. Stimulations were initiated in 96-well plates by co-incubating 1×10^6 CD8+ T cells with 2×10^5 washed coated beads in 200 μl TCM supplemented with 5 ng/ml IL-12 (PromoCell) for 3 days at 37° C. Half of the medium was then exchanged by fresh TCM supplemented with 80 U/ml IL-2 and incubating was continued for 4 days at 37° C. This stimulation cycle was performed for a total of three times. For the pMHC multimer readout using 8 different pMHC molecules per condition, a two-dimensional combinatorial coding approach was used as previously described (Andersen et al., 2012) with minor modifications encompassing coupling to 5 different fluorochromes. Finally, multimeric analyses were performed by staining the cells with Live/dead near IR dye (Invitrogen, Karlsruhe, Germany), CD8-FITC antibody clone SK1 (BD, Heidelberg, Germany) and fluorescent pMHC multimers. For analysis, a BD LSRII SORP cytometer equipped with appropriate lasers and filters was used. Peptide specific cells were calculated as percentage of total CD8+ cells. Evaluation of multimeric analysis was done using the FlowJo software (Tree Star, Oregon, USA). In vitro priming of specific multimer+CD8+ lymphocytes was detected by comparing to negative control stimulations.

| Substance | Peptide exchange (HLA-A*02:01) | Wells positive [%] (CD8+ T cells) |
| --- | --- | --- |
| 7 (ALADLTGTV; peptide displayed by HLA-A*02) [compound 7] | ++++ (≥75% = ++++) | + (<20% = +) |
| 76 (SLLRDFTLV; peptide displayed by HLA-A*02) [compound 76] | ++++ (≥75% = ++++) | + (<20% = +) |
| 47 (VIDSTLVKV; peptide displayed by HLA-A*02) [compound 47] | +++ (≥50% = +++) | ++ (20%-49% = ++) |
| 65 (ILLDKSTVL; peptide displayed by HLA-A*02) [compound 65] | ++++ (≥75% = ++++) | + (<20% = +) |
| 51 (HLCNHDVSL; peptide displayed by HLA-A*02) [compound 51] | ++++ (≥75% = ++++) |  |
| 41 (FLDTSTADV; peptide displayed by HLA-A*02) [compound 41] | ++++ (≥75% = ++++) |  |
| 15 (VLDDTLVIF; peptide displayed by HLA-A*02) [compound 15] | +++ (≥50% = +++) |  |
| 95 (KLAPEDLADLTAL; peptide displayed by HLA-A*02) [compound 95] | ++++ (≥75% = ++++) |  |
| 5 (ALPQFFNDV; peptide displayed by HLA-A*02) [compound 5] | ++++ (≥75% = ++++) |  |
| 70 (SMASFLKDV; peptide displayed by HLA-A*02) [compound 70] | ++++ (≥75% = ++++) |  |
| 86 (NLADNTILV; peptide displayed by HLA-A*02) [compound 86] | ++++ (≥75% = ++++) |  |
| 55 (KTWDQSIAL; peptide displayed by HLA-A*02) [compound 55] | ++++ (≥75% = ++++) |  |
| 63 (GLDRTQLVNV; peptide displayed by HLA-A*02) [compound 63] | ++++ (≥75% = ++++) |  |
| 59 (SQTDLSPAL; peptide displayed by HLA-A*02) [compound 59] | ++++ (≥75% = ++++) |  |
| 78 (AIDQTITEA; peptide displayed by HLA-A*02) [compound 78] | +++ (≥50% = +++) |  |
| 26 (ILYDGSNIQL; peptide displayed by HLA-A*02) [compound 26] | ++++ (≥75% = ++++) |  |
| 91 (VLKDGTLVI; peptide displayed by HLA-A*02) [compound 91] | ++ (≥20% =++) |  |
| 89 (SLFIDVTRV; peptide displayed by HLA-A*02) [compound 89] | ++++ (≥75% = ++++) |  |
| 56 (LLDSTAHLL; peptide displayed by HLA-A*02) [compound 56] | ++++ (≥75% = ++++) |  |
| 8 (KLAPDLTEL; peptide displayed by HLA-A*02) [compound 8] | +++ (≥50% = +++) | + (<20% = +) |

Second part, led by results:

| Peptide exchange (HLA-A*02:01) | Substance | Wells positive [%] (CD8+ T cells) |
| --- | --- | --- |
| +++ (≥50% = +++) | 6 (NLYNDLTNV; peptide displayed by HLA-A*02) [compound 6] | + (<20% = +) |
| ++++ (≥75% = ++++) | 101 (TLDATVVEL; peptide displayed by HLA-A*02) [compound 101] | ++ (20%-49% = ++) |
| +++ (≥50% = +++) | 97 (KLLDGSQRV; peptide displayed by HLA-A*02) [compound 97] | + (<20% = +) |
| +++ (≥50% = +++) | 98 (NLLADVSTV; peptide displayed by HLA-A*02) [compound 98] | + (<20% = +) |
| ++++ (≥75% = ++++) | 100 (SLLFQDITL; peptide displayed by HLA-A*02) [compound 100] | + (<20% = +) |
| ++++ (≥75% = ++++) | 20 (SLFAYPLPDV; peptide displayed by HLA-A*02) [compound 20] |  |
| ++++ (≥75% = ++++) | 52 (ILFDDSVFTL; peptide displayed by HLA-A*02) [compound 52] |  |
| ++++ (≥75% = ++++) | 34 (SLLDGSESAKL; peptide displayed by HLA-A*02) [compound 34] |  |
| +++ (≥50% = +++) | 53 (ILTDITGHDV; peptide displayed by HLA-A*02) [compound 53] |  |
| ++++ (≥75% = ++++) | 44 (LLDATHQI; peptide displayed by HLA-A*02) [compound 44] |  |
| ++++ (≥75% = ++++) | 13 (VLMDGTLKQV; peptide displayed by HLA-A*02) [compound 13] |  |
| ++++ (≥75% = ++++) | 21 (FLNLFDHTL; peptide displayed by HLA-A*02) [compound 21] |  |
| ++++ (≥75% = ++++) | 96 (KLDASLPAL; peptide displayed by HLA-A*02) [compound 96] | + (<20% = +) |
| ++++ (≥75% = ++++) | 61 (FISDFTMTI; peptide displayed by HLA-A*02) [compound 61] |  |
